The experiment concerns the target glycosylated Aeromonas caviae polar flagellin FlaA, FlaA (+pse) (Aeromonas caviae (endogenous in A. caviae Sch3N and its flaB mutant AAR27)). Nature of the experiment: far-Western, overlay or dot blot; glycosylated and unglycosylated FlaA titrated across an SDS-PAGE gel, transferred to nitrocellulose, probed with a constant concentration of GST-FlaJ; αGST-HRP, densitometry, triplicate blots.

B1: GST-tagged Aeromonas caviae flagellin-specific chaperone FlaJ (GST-FlaJ) (natural protein)
chain: MYKRNIKAYTAGNLAADLATADPHRVIQLMMQGCLERLAQAKGAIERNDMEAKSIAISKAQGLLHGLQDALDMSQGRMAEDLYGLYAYMDERVWDASLNRDTEPLEEVMTLMLTIKSGWDQLPETEKNQGYQMRQQLGEL
In turn, B1 returned a fold more GST-FlaJ bound than to equimolar unglycosylated FlaA of 5 fold.

Source of the values: article PMC4065374.
